From publication PMC6192259 (Molecular cell, 2017)

Tests used:
Dim1 = Dim1 (yeast, UniProt P41819 1-318); assay: pull-down
MBP-Dim1 = MBP-Dim1 (yeast, UniProt P41819 1-318); assay: pull-down
Chain of MBP-Dim1 (P41819 whole entry): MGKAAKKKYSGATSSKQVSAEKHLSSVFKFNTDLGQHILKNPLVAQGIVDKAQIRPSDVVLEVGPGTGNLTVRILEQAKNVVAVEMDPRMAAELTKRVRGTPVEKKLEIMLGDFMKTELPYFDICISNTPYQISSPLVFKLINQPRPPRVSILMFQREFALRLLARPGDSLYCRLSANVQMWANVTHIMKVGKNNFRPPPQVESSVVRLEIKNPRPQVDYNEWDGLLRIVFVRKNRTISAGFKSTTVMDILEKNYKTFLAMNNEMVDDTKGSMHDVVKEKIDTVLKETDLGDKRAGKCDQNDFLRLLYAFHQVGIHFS

Chain of Dim1 (P41819 whole entry): as above

binding result (Dim1)	binding result (MBP-Dim1)	Binder
binds	–	MBP-Fap7 (enzyme, yeast, UniProt Q12055 1-197, looked up) MEARRYGPNIIVTGTPGCGKSSTCEFLKNKLKDYKYYNISDFAKDNDCFEGYDEGRKSHIVDEDKLLDMLEPLLRQGNSIVDWHVNDVFPERLIDLVVVLRCDNSNLYSRLHARGYHDSKIEENLDAEIMGVVKQDAVESYEPHIVVELQSDTKEDMVSNVSRIVAWEKMWLEQHPDGVTNEYQGPRSDDEDDEDSE
–	binds	Fap7 (enzyme, yeast, UniProt Q12055 1-197, looked up) MEARRYGPNIIVTGTPGCGKSSTCEFLKNKLKDYKYYNISDFAKDNDCFEGYDEGRKSHIVDEDKLLDMLEPLLRQGNSIVDWHVNDVFPERLIDLVVVLRCDNSNLYSRLHARGYHDSKIEENLDAEIMGVVKQDAVESYEPHIVVELQSDTKEDMVSNVSRIVAWEKMWLEQHPDGVTNEYQGPRSDDEDDEDSE
